Where no end group is shown, it is not given here. [ ]: non-standard residue; d: D form.

The record followed here is article PMC9133466.

Assay [1] addresses amyloid beta (Aβ) of human brain homogenate (human (endogenous in human brain)).
Assay [2] addresses amyloid beta (Aβ) of APP/PS1 mouse brain homogenate (human).
For assay [3], the target named is amyloid beta (Aβ) of human brain homogenate (human (endogenous in human brain)). This is another data set of the same source.
For assay [4] the target is unchanged. This is another data set of the same source.

B1: D1 (peptide)
peptide: [dQ][dS][dH][dY][dR][dH][dI][dS][dP][dA][dQ][dV]-NH2
modifications: N-terminus assumed
SMILES: CC[C@@H](C)[C@@H](NC(=O)[C@@H](Cc1c[nH]cn1)NC(=O)[C@@H](CCCNC(=N)N)NC(=O)[C@@H](Cc1ccc(O)cc1)NC(=O)[C@@H](Cc1c[nH]cn1)NC(=O)[C@@H](CO)NC(=O)[C@H](N)CCC(N)=O)C(=O)N[C@H](CO)C(=O)N1CCC[C@@H]1C(=O)N[C@H](C)C(=O)N[C@H](CCC(N)=O)C(=O)N[C@@H](C(N)=O)C(C)C
B1 yielded a reduction of Aβ oligomer signal by sFIDA; human AD brain homogenate AD2 diluted 1:40 (similar at 1:10 and 1:20), 0.31-20 μM D1, 24 h in assay [1] of 27%.

B2: RD2 (peptide)
peptide: [dP][dT][dL][dH][dT][dH][dN][dR][dR][dR][dR][dR]-NH2
modifications: N-terminus assumed
SMILES: CC(C)C[C@@H](NC(=O)[C@H](NC(=O)[C@H]1CCCN1)[C@H](C)O)C(=O)N[C@H](Cc1c[nH]cn1)C(=O)N[C@@H](C(=O)N[C@H](Cc1c[nH]cn1)C(=O)N[C@H](CC(N)=O)C(=O)N[C@H](CCCNC(=N)N)C(=O)N[C@H](CCCNC(=N)N)C(=O)N[C@H](CCCNC(=N)N)C(=O)N[C@H](CCCNC(=N)N)C(=O)N[C@H](CCCNC(=N)N)C(N)=O)[C@H](C)O
In assay [2], B2 gave a reduction of Aβ oligomer concentration (Aβ with Aβ) by sFIDA; DGC fraction 10 of APP/PS1 mouse brain homogenate diluted 1:2, 0-50 μM RD2, 0 min to 20 h, 4 °C of 81%. In assay [3], the reduction of Aβ oligomer concentration (Aβ with Aβ) by sFIDA; DGC fraction 10 of human AD brain homogenate AD2 diluted 1:10, 5 and 20 μM RD2, 0 to 1,380 min was found to be 92%; the reduction of Aβ oligomer concentration (Aβ with Aβ) by sFIDA; DGC fraction 10 of human AD brain homogenate AD6 diluted 1:10, 5 and 20 μM RD2, 0 to 1,380 min worked out at 88%; the reduction of Aβ oligomer concentration (Aβ with Aβ) by sFIDA; pooled DGC fractions 4 to 6 of human AD brain homogenate AD2, 20 μM RD2, 1,380 min worked out at 64%; the reduction of Aβ oligomer concentration (Aβ with Aβ) by sFIDA; pooled DGC fractions 4 to 6 of human AD brain homogenate AD6, 20 μM RD2, 1,380 min turned out to be 62%. In assay [1], this molecule gave a reduction of Aβ oligomer concentration (Aβ with Aβ) by sFIDA; human AD brain homogenate AD2 diluted 1:10, 0.31-20 μM RD2, 24 h of 93%; a reduction of Aβ oligomer concentration (Aβ with Aβ) by sFIDA; human AD brain homogenate AD2 diluted 1:20, 0.31-20 μM RD2, 24 h of 95%; a reduction of Aβ oligomer concentration (Aβ with Aβ) by sFIDA; human AD brain homogenate AD2 diluted 1:40, 0.31-20 μM RD2, 24 h of 96%. For the same molecule, in assay [4], the decrease of Aβ oligomer concentration (Aβ with Aβ) by sFIDA; human AD brain homogenate AD2 diluted 1:20, 1.25-20 μM RD2, 0 to 1,365 min turned out to be 93%; the decrease of Aβ oligomer concentration (Aβ with Aβ) by sFIDA; human AD brain homogenate AD4 diluted 1:20, 1.25-20 μM RD2, 0 to about 23 h amounted to 91%; the decrease of Aβ oligomer concentration (Aβ with Aβ) by sFIDA; human AD brain homogenate AD5 diluted 1:20, 1.25-20 μM RD2, 0 to about 23 h is 89%; the decrease of Aβ oligomer concentration (Aβ with Aβ) by sFIDA; human AD brain homogenate AD6 diluted 1:20, 1.25-20 μM RD2, 0 to 1,425 min was determined as 90%. In assay [4], this molecule returned a reaction rate constant k (1,fast) of Aβ oligomer elimination by RD2 (global double exponential fit, effective RD2 1 and 16 μM); homogenate AD2 (L∗mol^−1∗min^−1) of 2330; a reaction rate constant k (1,fast) of Aβ oligomer elimination by RD2 (global double exponential fit, effective RD2 1 and 16 μM); homogenate AD4 (L∗mol^−1∗min^−1) of 2930; a reaction rate constant k (1,fast) of Aβ oligomer elimination by RD2 (global double exponential fit, effective RD2 1 and 16 μM); homogenate AD5 (L∗mol^−1∗min^−1) of 2370; a reaction rate constant k (1,fast) of Aβ oligomer elimination by RD2 (global double exponential fit, effective RD2 1 and 16 μM); homogenate AD6 (L∗mol^−1∗min^−1) of 1280. In assay [4], this molecule had a reaction rate constant k (1,slow) of Aβ oligomer elimination by RD2 (global double exponential fit, effective RD2 1 and 16 μM); homogenate AD2 (L∗mol^−1∗min^−1) of 76; a reaction rate constant k (1,slow) of Aβ oligomer elimination by RD2 (global double exponential fit, effective RD2 1 and 16 μM); homogenate AD4 (L∗mol^−1∗min^−1) of 37; a reaction rate constant k (1,slow) of Aβ oligomer elimination by RD2 (global double exponential fit, effective RD2 1 and 16 μM); homogenate AD5 (L∗mol^−1∗min^−1) of 50; a reaction rate constant k (1,slow) of Aβ oligomer elimination by RD2 (global double exponential fit, effective RD2 1 and 16 μM); homogenate AD6 (L∗mol^−1∗min^−1) of 48.
